Assay results published in PMC9504841.

How the values were obtained:
[1] = molecular target: MPER_(664–690) peptide (HIV-1); assay: ITC; Fab at 3 μM titrated with 12 injections of 40 μM peptide; VP-ITC, 25 °C; 10 mM sodium phosphate pH 7.5, 150 mM NaCl, 10% glycerol, 5 mM DPC; one-site binding model
[2] = molecular target: native HIV-1 Env (PVO, clone 4) on virions (HIV-1)

10E8-2R Fab (LC S30R/N52R) gave a Kd [1] of 46.3 nM, a dH [1] of -6.24 kcal/mol and a stoichiometry N [1] of 1.17.

In the case of 10E8-2RF Fab (LC S30R/N52R, HC S100cF), the pseudovirus neutralisation (cell-entry inhibition, TZM-bl cells; JRCSF and PVO.4 PsV): potency of the Fab against the parental Fab 10E8-WT [2] is reported as 50 fold, the Kd [1] is reported as 41.3 nM and the dH [1] is reported as -2.3 kcal/mol. It also gave a stoichiometry N [1] of 1.16.

10E8-WT Fab showed a Kd [1] of 32.4 nM, a dH [1] of -6.73 kcal/mol and a stoichiometry N [1] of 1.12.
